This note sets out measurements from PMC9569306.

The target of assay [1] is [FeFe]-hydrogenase HydA2 from Chlamydomonas reinhardtii (C. reinhardtii).
The target in assay [2] is [FeFe]-hydrogenase HydA1 from Chlamydomonas reinhardtii (C. reinhardtii).
Assay [3] shares this target. The source holds these as a separate data set.
For assay [4], the target named is ferredoxin-NADP+ oxidoreductase (FNR) from Chlamydomonas reinhardtii (C. reinhardtii) (UniProt P53991).
Assay [5] has the same target. This is another data set of the same source.

Sequence of UniProt P53991 (P53991 36-354): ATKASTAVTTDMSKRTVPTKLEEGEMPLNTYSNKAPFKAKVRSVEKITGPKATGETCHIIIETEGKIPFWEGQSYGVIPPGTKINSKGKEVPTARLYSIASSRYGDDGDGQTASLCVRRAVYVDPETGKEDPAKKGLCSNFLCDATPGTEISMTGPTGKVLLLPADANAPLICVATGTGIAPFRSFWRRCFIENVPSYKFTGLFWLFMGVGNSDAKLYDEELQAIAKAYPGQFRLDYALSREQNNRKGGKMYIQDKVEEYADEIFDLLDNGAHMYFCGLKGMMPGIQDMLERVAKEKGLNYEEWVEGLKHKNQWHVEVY

Consider “ferredoxin Fdx3 from Chlamydomonas reinhardtii (natural protein)”, for which, in assay [1], the H2 production rate of HydA2, 50 µM ferredoxin reduced with 10 mM sodium dithionite, against PetF (% of the rate with PetF) was 10. For the same substance, the light-dependent H2 production of HydA1 (50 nM, 10 µM ferredoxin) left in the presence of the competitor FNR (50 nM), against the rate without FNR in assay [2] worked out at 29%.
“photosynthetic ferredoxin PetF from Chlamydomonas reinhardtii (from UniProt P07839 33-126) (natural protein)”: in assay [1], the H2 production rate of HydA2, 50 µM ferredoxin reduced with 10 mM sodium dithionite (µmol H2 × min^−1 × mg^−1) turned out to be 63.9. The substance also showed an H2 production rate of HydA1, 50 µM ferredoxin reduced with 10 mM sodium dithionite (µmol H2 × min^−1 × mg^−1) in assay [3] of 225. Besides, the NADPH-dependent cytochrome c reduction, 40 nM FNR, 5 µM ferredoxin, initial reaction speed (µM cyt c × min^−1) in assay [4] amounted to 84.2.
“ferredoxin Fdx7 from Chlamydomonas reinhardtii (natural protein)” returned an H2 production rate of HydA1, 50 µM ferredoxin reduced with 10 mM sodium dithionite, against PetF (% of the rate with PetF) in assay [3] of 14. In assay [2], the light-dependent H2 production of HydA1 (50 nM, 10 µM ferredoxin) left in the presence of the competitor FNR (50 nM), against the rate without FNR is 59%.
Consider “ferredoxin Fdx8 from Chlamydomonas reinhardtii (natural protein)”, for which, in assay [2], the light-dependent H2 production of HydA1 (50 nM, 10 µM ferredoxin) left in the presence of the competitor FNR (50 nM), against the rate without FNR worked out at 52%.
For the substance “ferredoxin Fdx11 from Chlamydomonas reinhardtii (natural protein)”, in assay [5], the NADPH-dependent cytochrome c reduction, 40 nM FNR, 5 µM ferredoxin (µM cyt c × min^−1) is 34.4.
Consider “ferredoxin Fdx10 from Chlamydomonas reinhardtii (natural protein)”, for which, in assay [2], the light-dependent H2 production of HydA1 (50 nM, 10 µM ferredoxin) left in the presence of the competitor FNR (50 nM), against the rate without FNR is 43%. This substance also returned an NADPH-dependent cytochrome c reduction, 40 nM FNR, 5 µM ferredoxin (µM cyt c × min^−1) in assay [5] of 23.3.
The substance “ferredoxin Fdx2 from Chlamydomonas reinhardtii (natural protein)” returned an H2 production rate of HydA2, 50 µM ferredoxin reduced with 10 mM sodium dithionite (µmol H2 × min^−1 × mg^−1) in assay [1] of 12.6. In addition, in assay [3], the H2 production rate of HydA1, 50 µM ferredoxin reduced with 10 mM sodium dithionite, against PetF (% of the rate with PetF) came to 40. For the same substance, the NADPH-dependent cytochrome c reduction, 40 nM FNR, 5 µM ferredoxin, initial reaction speed (µM cyt c × min^−1) in assay [4] came to 121.
